T1: Recombinant human mature SLPI (Secretory leukocyte protease inhibitor)
T1 chain: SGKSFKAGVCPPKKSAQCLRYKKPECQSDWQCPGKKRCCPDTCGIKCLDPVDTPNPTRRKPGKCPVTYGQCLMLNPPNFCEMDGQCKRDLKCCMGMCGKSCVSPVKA


Legend:
[1] = target: T1, Recombinant human mature SLPI …
[2] = target: T2, Recombinant human mature SLPI (Secretory leukocyte protease inhibitor) (human, UniProt P03973 26-132); experiment: sandwich ELISA, hybridoma supernatant as capture, biotinylated anti-SLPI PAb BAF1274 as detector
T2 construct: Bought from R&D Systems (product number 1274-PI-100); also called full length SLPI; full-length SLPI
Description: FIG. 4. Detection of C-SLPI in CF sputum samples. CF sputum samples were assayed via ELISA for the presence of C-SLPI using the supernatant from hybridoma clone C5.5 as a capture antibody. Standard curve generated by assaying known concentration of C-SLPI produced by incubation of recombinant SLPI with NE (A). C-SLPI concentrations in 63 sputum samples derived from CF patients as identified via ELISA using C5.5 as a capture antibody (B).
A Maxisorp plate (Nunc) was coated for 16 h at 4° C. with 100 μl/well hybridoma supernatant diluted 1:50 in Voller's reagent. Cell free hybridoma supernatants were acquired directly from individual cultures by centrifugation at 1,400 rpm for 5 min. The plate was blocked with 200 μl 1% BSA in PBST 0.05% (v/v) Tween 20 for 1 h at room temperature. Either a half concentration dilution series of 200 ng/ml to 3.125 ng/ml of both C-SLPI and SLPI (100 μl/well) in 1% BSA in PBST 0.05% (v/v) Tween 20 or CF sputum samples diluted 1:50 v/v in 1% BSA in PBST 0.05% (v/v) Tween 20 were added to the plate and incubated for 2 h at room temperature. Control wells received NE alone. […] The absorbance at 405 nm of wells was measured on a microtiter plate reader (Genios using Magellan software) and results were analyzed using GraphPad Prism version 6 (GraphPad Software).

Binder	SLPI cleavage by NE (Western blot) [1]	binding result [2]
Human neutrophil elastase (human sputum derived NE, Elastin Products SE563) (protein) IVGGRRARPHAWPFMVSLQLRGGHFCGATLIAPNFVMSAAHCVANVNVRAVRVVLGAHNLSRREPTRQVFAVQRIFENGYDPVNLLNDIVILQLNGSATINANVQVAQLPAQGRRLGNGVQCLAMGWGLLGRNRGIASVLQELNVTVVTSLCRRSNVCTLVRGRQAGVCFGDSGSPLVCNGLIHGIASFVRGGCASGLYPDAFAPVAQFVNWIDSIIQ	Successful cleavage of SLPI was observed at molar ratios of 1:4, 1:8 and 1:10 SLPI to NE	
C5.5 monoclonal antibody (supernatant of hybridoma clone C5.5) (antibody, V domains shown, Used as cell-free hybridoma supernatant coated on the plate (capture antibody); also called C5.5 supernatant) VH: EVQLVESGGGLVHPQGSLKLSCTASGFTFNTYDMNWVRQAPGKGLEWVARIRTKSYYYATYYADSVKDRFTISRDDSQTMLYLQLNNLKTEDTALYYCVRRSGNYGAMDYWGQGTSVTVSS VL: QIVLTQSPAIMSASLGERVTMTCTASSSVSSSYLHWYQQKPGSSPKLWIYSTSNLASGVPARFSGSGSGTSYSLTISSMEAEDAATYYCHQYHRSPRTFGGGTKLEIK		no binding (tested: 200 ng/ml to 3.125 ng/ml)

From patent publication US20170212117A1 (RANDOX LABORATORIES, published 2017)
